The record followed here is article PMC8754650, “Structural basis of DNA methylation-dependent site selectivity of the Epstein–Barr virus lytic switch protein ZEBRA/Zta/BZLF1”.

Data set [1] addresses T1, Strep/FLAG:ZEBRA (Epstein-Barr virus, UniProt P03206 149-245). Put plainly: EMSA; between ZRE2 and meZRE2; FP: PBS (137 mM NaCl, 2.7 mM KCl, 10 mM Na2HPO4, 1.8 mM KH2PO4) pH 7.4, 20 C, 10 nM duplex, 28 ng/ul herring testes DNA competitor; EMSA per cited ref with competitor DNA. The settings on record: protein: recombinant; tags: StrepII/FLAG; chain copies: 2; 5' overhang 2 nt each end.

Data set [2] addresses T1, Strep/FLAG:ZEBRA. The experiment in a line: EMSA; tightest; FP: PBS (137 mM NaCl, 2.7 mM KCl, 10 mM Na2HPO4, 1.8 mM KH2PO4) pH 7.4, 20 C, 10 nM duplex, 28 ng/ul herring testes DNA competitor; EMSA per cited ref with competitor DNA. The settings on record: protein: recombinant; tags: StrepII/FLAG; chain copies: 2; 5' overhang 2 nt each end.
Data set [3] addresses T1, Strep/FLAG:ZEBRA. The experiment in a line: EMSA; between ZRE2 and meZRE2; slightly stronger than hemi C-2'; FP: PBS (137 mM NaCl, 2.7 mM KCl, 10 mM Na2HPO4, 1.8 mM KH2PO4) pH 7.4, 20 C, 10 nM duplex, 28 ng/ul herring testes DNA competitor; EMSA per cited ref with competitor DNA. As to conditions: protein: recombinant; tags: StrepII/FLAG; chain copies: 2; 5' overhang 2 nt each end.

The next data set has as its target ZEBRA DBD WT (Epstein-Barr virus, UniProt P03206 175-236). Put plainly: FP; apparent, Hill n=2; FP: PBS (137 mM NaCl, 2.7 mM KCl, 10 mM Na2HPO4, 1.8 mM KH2PO4) pH 7.4, 20 C, 10 nM duplex, 28 ng/ul herring testes DNA competitor; EMSA per cited ref with competitor DNA. As to conditions: protein: recombinant; tags: MBP; chain copies: 2; label: rhodamine 5' of strand 1; 5' overhang 1 nt each end.

The target in another data set is GCN4 DBD WT (Saccharomyces cerevisiae, UniProt P03069 228-281). The experiment in a line: FP; apparent; FP: PBS (137 mM NaCl, 2.7 mM KCl, 10 mM Na2HPO4, 1.8 mM KH2PO4) pH 7.4, 20 C, 10 nM duplex, 28 ng/ul herring testes DNA competitor; EMSA per cited ref with competitor DNA. The settings on record: protein: recombinant; tags: MBP; chain copies: 2; label: rhodamine 5' of strand 1; 5' overhang 1 nt each end.

In data set [4] the target is T1, Strep/FLAG:ZEBRA. Put plainly: EMSA; intermediate, similar to hemi-methylated sites; FP: PBS (137 mM NaCl, 2.7 mM KCl, 10 mM Na2HPO4, 1.8 mM KH2PO4) pH 7.4, 20 C, 10 nM duplex, 28 ng/ul herring testes DNA competitor; EMSA per cited ref with competitor DNA. The settings on record: protein: recombinant; tags: StrepII/FLAG; chain copies: 2; 5' overhang 2 nt each end.

T1 sequence (P03206 149-245): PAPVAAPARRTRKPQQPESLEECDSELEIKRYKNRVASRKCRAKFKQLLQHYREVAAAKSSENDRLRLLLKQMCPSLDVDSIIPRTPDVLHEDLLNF
Chain of ZEBRA DBD WT (P03206 175-236): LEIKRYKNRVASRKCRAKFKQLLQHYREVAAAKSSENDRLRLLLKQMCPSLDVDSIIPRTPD
Chain of GCN4 DBD WT (P03069 228-281): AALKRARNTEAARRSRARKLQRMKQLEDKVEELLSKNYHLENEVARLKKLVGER

B1: hemi-me C-2' ZRE2 (EMSA) (dsDNA)
DNA 1: ATAGCTTATGAGCGATTTTATC
DNA 2: ATGATAAAATCGCTCATAAGCT
modifications: 5mC at position 11 of strand 2
With B1, the binding result with Strep/FLAG:ZEBRA [1] was “binds”.

B2: meZRE2 (EMSA) (dsDNA)
DNA 1: ATAGCTTATGAGCGATTTTATC
DNA 2: ATGATAAAATCGCTCATAAGCT
modifications: 5mC at position 13 of strand 1 and 11 of strand 2
As to B2, the binding result with Strep/FLAG:ZEBRA [2] is “binds”.

B3: hemi-me C1 ZRE2 (EMSA) (dsDNA)
DNA 1: ATAGCTTATGAGCGATTTTATC
DNA 2: ATGATAAAATCGCTCATAAGCT
modifications: 5mC at position 13 of strand 1
On to B3, for which the binding result in the data set with Strep/FLAG:ZEBRA [3] is “binds”.

B4: AP-1 (FP) (dsDNA)
DNA 1: AGCTTATGAGTCATTTTAT
DNA 2: AATAAAATGACTCATAAGC
Regarding B4, the values for the Kd with ZEBRA DBD WT and with GCN4 DBD WT were 271 ± 25 nM and 77.9 ± 8.8 nM, respectively.

B5: oriLyt ZRE5 (EMSA) (dsDNA)
DNA 1: ATAGCTTATGTGCAATTTTATC
DNA 2: ATGATAAAATTGCACATAAGCT
Regarding B5, the binding result in the data set with Strep/FLAG:ZEBRA [4] was “binds”.
